Ends that are not written are not given here.

The term Kd denotes the equilibrium constant for the complex coming apart.

The target in the test is T1, LiRAD51^ATPase (Leishmania infantum RAD51 ATPase domain, residues 134–386) (Leishmania infantum).
T1 construct: RAD51 of Leishmania infantum, ATPase domain, residues 134-386; Vector pHAT2 (Addgene #112583); No removal of the His-tag is described; also called monomeric LiRAD51^ATPase; LiRAD51 ATPase domain; source: E. coli (T7Express or BL21(DE3)); purified (Ni-NTA, Superdex 75 SEC) for FP and ITC; in lysate for the pull-down
Description: fluorescence polarisation; competition: 5 nM Fluor-NCys-LiBRC1 probe with 500 nM LiRAD51^ATPase, GB1-LiBRC repeats in serial dilutions; KD estimated from the fitted IC50; 50 mM Tris pH 8.0, 150 mM NaCl, 100 mM Li2SO4, 1% BSA, 0.1% Tween-20. The conditions noted are these: both partners purified.

Regarding LVPTLFSTASGKPVTVRRESLQKVAERLGDLAAPDME (domain or fragment, not fully specified (N-terminus); also: GB1 fusion) [LiBRC1.2 (LiBRC1 with extended termini, GB1 fusion)], the Kd was 190 nM.

On to GB1-RVPTLFETGRGKAVTVQKRSLDKAEASMDSLEA-His8 (domain or fragment) [GB1-LiBRC2-His8 (BRC repeat 2 of Leishmania infantum BRCA2 fused to GB1)], for which the Kd is 13600 nM.

Regarding AAAPPLVPTLFSTASGKPVTVRRESLQKVAERLGDLAA (domain or fragment, not fully specified (N-terminus); also: GB1 fusion) [LiBRC1.3 (LiBRC1 with extended termini, GB1 fusion)], the Kd was 310 nM.

The values above are taken from paper PMC9162458, “Divergent binding mode for a protozoan BRC repeat to RAD51” (Biochemical Journal, 2022).
